{"source": "paper PMC7427744", "about": "“Using singular perturbation theory to determine kinetic parameters in a non-standard coupled enzyme assay” (Journal of Mathematical Biology, 2020)", "proteins": {"B1": {"name": "CnAptA (Cupriavidus necator H16) (protein)", "chain": "MDAAKTVIPDLDALWMPFTANRQYKAAPRLLASASGMYYTTHDGRQILDGCAGLWCVAAGHCRTEIAEAVARQAATLDYAPPFQMGHPLSFEAATKVAAIMPQGLDRIFFTNSGSESVDTALKIALAYHRARGEGQRTRFIGRERGYHGVGFGGMAVGGIGPNRKAFSANLMPGTDHLPATLNIAEAAFSKGQPQWGAHLADELERILALHDPSNVAAVIVEPLAGSAGVLVPPVGYLEKLREITSKHGILLIFDEVITAFGRLGAATAAERFKVTPDLITMAKAINNAAVPMGAVAVRREVHDTVVNSAAPGAIELLHGYTYSGHPLAAAAAIATLDLYQRENLFGRAAELAPVFEAAVHGVRGAPHVKDIRNYGLVAGIELEPRPGQPGARAYEAFLKCLELGVLVRYTGDILAFSPPLIISEAQIGELFDTVKKALQDIK", "notes": "E. coli ER2566 host; 47 kDa"}}, "key": {"purified protein [1]": {"substrate": "CC(N)CC(=O)O", "assay": "purified protein", "type": "biochemical, Cupriavidus necator", "conditions": "co-substrate 5 mM pyruvate (assumed saturating), 2.5 mM NAD+, 5 uM PLP, sodium carbonate buffer pH 10, 30 C"}, "purified protein [2]": {"substrate": "NCCCCC(=O)O", "assay": "purified protein", "type": "biochemical, Cupriavidus necator", "conditions": "co-substrate 5 mM pyruvate (assumed saturating), 2.5 mM NAD+, 5 uM PLP, sodium carbonate buffer pH 10, 30 C"}}}
{"protein": "B1", "values": [{"measurement": "Km", "setting": "purified protein [1]", "value": 1300, "unit": "µM"}, {"measurement": "Km", "setting": "purified protein [2]", "value": 930, "unit": "µM"}]}
